Reference: patent US20140056964A1, “GRANZYME B INHIBITOR COMPOSITIONS, METHODS AND USES FOR PROMOTING WOUND HEALING” (THE UNIVERSITY OF BRITISH COLUMBIA, priority 2010, published 2014)

System: wild type C57BL/6 mice
Test: full thickness skin wound in mice, decorin immunohistochemistry of closed wound tissue
Type: in vivo, mouse
Settings: 1 cm full thickness back wound, 60 μl applied directly onto the wound, 16 days
Method: As depicted in FIG. 23, decorin distribution is impacted by serpina3n in closed wound tissue. Seven week old wild type C57BL/6 mice were given a 1 cm diameter full thickness wound on their backs. Mice were then given either saline (upper panels) or the Granzyme B inhibitor, serpina3n (lower panels), by applying 60 μl of the appropriate solution directly onto the wound immediately following the wounding procedure. Wounds were allowed to heal for 16 days, at which point mice were sacrificed and the closed wound tissue harvested. […] Increased decorin throughout the newly formed dermis thus provides more organized collagen, less scarring and increased tensile strength.

B1: serpina3n: the Granzyme B inhibitor, serpina3n; Serpina3n is also known as SerpinA3 (protein, UniProt Q91WP6 21-418, looked up)
Serine protease inhibitor A3N: FPDGTLGMDAAVQEDHDNGTQLDSLTLASINTDFAFSLYKELVLKNPDKNIVFSPLSISAALAVMSLGAKGNTLEEILEGLKFNLTETSEADIHQGFGHLLQRLNQPKDQVQISTGSALFIEKRQQILTEFQEKAKTLYQAEAFTADFQQPRQAKKLINDYVRKQTQGMIKELVSDLDKRTLMVLVNYIYFKAKWKVPFDPLDTFKSEFYAGKRRPVIVPMMSMEDLTTPYFRDEELSCTVVELKYTGNASALFILPDQGRMQQVEASLQPETLRKWKNSLKPRMIDELHLPKFSISTDYSLEDVLSKLGIREVFSTQADLSAITGTKDLRVSQVVHKAVLDVAETGTEAAAATGVKFVPMSAKLYPLTVYFNRPFLIMIFDTETEIAPFIAKIANPK
decorin distribution (immunohistochemistry) in newly formed dermis: intense decorin staining near the dermal-epidermal junction but also demonstrated intense decorin staining deeper into the dermis
